Experimental data reported in IntAct's records for PubMed 31515488.

B1: Zinc finger protein 473 (Homo sapiens), Q8WTR7 (parent)
chain: MAEEFVTLKDVGMDFTLGDWEQLGLEQGDTFWDTALDNCQDLFLLDPPRPNLTSHPDGSEDLEPLAGGSPEATSPDVTETKNSPLMEDFFEEGFSQEIIEMLSKDGFWNSNFGEACIEDTWLDSLLGDPESLLRSDIATNGESPTECKSHELKRGLSPVSTVSTGEDSMVHNVSEKTLTPAKSKEYRGEFFSYSDHSQQDSVQEGEKPYQCSECGKSFSGSYRLTQHWITHTREKPTVHQECEQGFDRNASLSVYPKTHTGYKFYVCNEYGTTFSQSTYLWHQKTHTGEKPCKSQDSDHPPSHDTQPGEHQKTHTDSKSYNCNECGKAFTRIFHLTRHQKIHTRKRYECSKCQATFNLRKHLIQHQKTHAAKTTSECQECGKIFRHSSLLIEHQALHAGEEPYKCNERGKSFRHNSTLKIHQRVHSGEKPYKCSECGKAFHRHTHLNEHRRIHTGYRPHKCQECVRSFSRPSHLMRHQAIHTAEKPYSCAECKETFSDNNRLVQHQKMHTVKTPYECQECGERFICGSTLKCHESVHAREKQGFFVSGKILDQNPEQKEKCFKCNKCEKTFSCSKYLTQHERIHTRGVKPFECDQCGKAFGQSTRLIHHQRIHSRVRLYKWGEQGKAISSASLIKLQSFHTKEHPFKCNECGKTFSHSAHLSKHQLIHAGENPFKCSKCDRVFTQRNYLVQHERTHARKKPLVCNECGKTFRQSSCLSKHQRIHSGEKPYVCDYCGKAFGLSAELVRHQRIHTGEKPYVCQECGKAFTQSSCLSIHRRVHTGEKPYRCGECGKAFAQKANLTQHQRIHTGEKPYSCNVCGKAFVLSAHLNQHLRVHTQETLYQCQRCQKAFRCHSSLSRHQRVHNKQQYCL
partner: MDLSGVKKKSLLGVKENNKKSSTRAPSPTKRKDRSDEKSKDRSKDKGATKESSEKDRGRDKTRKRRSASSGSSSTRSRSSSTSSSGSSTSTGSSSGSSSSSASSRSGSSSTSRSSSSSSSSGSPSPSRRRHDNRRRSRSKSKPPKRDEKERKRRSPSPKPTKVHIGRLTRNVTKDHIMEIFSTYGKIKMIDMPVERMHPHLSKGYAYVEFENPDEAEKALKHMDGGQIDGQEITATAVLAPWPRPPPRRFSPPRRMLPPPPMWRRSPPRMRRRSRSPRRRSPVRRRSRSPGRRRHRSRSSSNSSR
B2: KAT8 regulatory NSL complex subunit 1 (Homo sapiens), Q7Z3B3 (parent)
chain: MAAMAPALTDAAAEAHHIRFKLAPPSSTLSPGSAENNGNANILIAANGTKRKAIAAEDPSLDFRNNPTKEDLGKLQPLVASYLCSDVTSVPSKESLKLQGVFSKQTVLKSHPLLSQSYELRAELLGRQPVLEFSLENLRTMNTSGQTALPQAPVNGLAKKLTKSSTHSDHDNSTSLNGGKRALTSSALHGGEMGGSESGDLKGGMTNCTLPHRSLDVEHTTLYSNNSTANKSSVNSMEQPALQGSSRLSPGTDSSSNLGGVKLEGKKSPLSSILFSALDSDTRITALLRRQADIESRARRLQKRLQVVQAKQVERHIQHQLGGFLEKTLSKLPNLESLRPRSQLMLTRKAEAALRKAASETTTSEGLSNFLKSNSISEELERFTASGIANLRCSEQAFDSDVTDSSSGGESDIEEEELTRADPEQRHVPLRRRSEWKWAADRAAIVSRWNWLQAHVSDLEYRIRQQTDIYKQIRANKGLIVLGEVPPPEHTTDLFLPLSSEVKTDHGTDKLIESVSQPLENHGAPIIGHISESLSTKSCGALRPVNGVINTLQPVLADHIPGDSSDAEEQLHKKQRLNLVSSSSDGTCVAARTRPVLSCKKRRLVRPNSIVPLSKKVHRNSTIRPGCDVNPSCALCGSGSINTMPPEIHYEAPLLERLSQLDSCVHPVLAFPDDVPTSLHFQSMLKSQWQNKPFDKIKPPKKLSLKHRAPMPGSLPDSARKDRHKLVSSFLTTAKLSHHQTRPDRTHRQHLDDVGAVPMVERVTAPKAERLLNPPPPVHDPNHSKMRLRDHSSERSEVLKHHTDMSSSSYLAATHHPPHSPLVRQLSTSSDSPAPASSSSQVTASTSQQPVRRRRGESSFDINNIVIPMSVAATTRVEKLQYKEILTPSWREVDLQSLKGSPDEENEEIEDLSDAAFAALHAKCEEMERARWLWTTSVPPQRRGSRSYRSSDGRTTPQLGSANPSTPQPASPDVSSSHSLSEYSHGQSPRSPISPELHSAPLTPVARDTPRHLASEDTRCSTPELGLDEQSVQPWERRTFPLAHSPQAECEDQLDAQERAARCTRRTSGSKTGRETEAAPTSPPIVPLKSRHLVAAATAQRPTHR
partner: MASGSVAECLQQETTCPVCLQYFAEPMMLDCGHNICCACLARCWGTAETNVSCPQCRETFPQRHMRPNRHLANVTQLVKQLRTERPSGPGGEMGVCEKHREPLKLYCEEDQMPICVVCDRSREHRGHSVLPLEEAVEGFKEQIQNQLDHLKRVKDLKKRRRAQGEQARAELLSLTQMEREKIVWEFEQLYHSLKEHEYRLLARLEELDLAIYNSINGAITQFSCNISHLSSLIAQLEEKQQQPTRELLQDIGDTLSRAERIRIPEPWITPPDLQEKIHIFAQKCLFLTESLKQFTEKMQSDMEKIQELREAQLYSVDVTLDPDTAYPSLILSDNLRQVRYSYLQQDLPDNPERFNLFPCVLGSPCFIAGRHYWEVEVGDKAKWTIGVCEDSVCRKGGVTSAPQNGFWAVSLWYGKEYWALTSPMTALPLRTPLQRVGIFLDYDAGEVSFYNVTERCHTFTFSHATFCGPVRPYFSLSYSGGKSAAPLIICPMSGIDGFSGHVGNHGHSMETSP
B3: E3 ubiquitin-protein ligase TRIM17 (Homo sapiens), Q9Y577 (parent)
chain: MEAVELARKLQEEATCSICLDYFTDPVMTTCGHNFCRACIQLSWEKARGKKGRRKRKGSFPCPECREMSPQRNLLPNRLLTKVAEMAQQHPGLQKQDLCQEHHEPLKLFCQKDQSPICVVCRESREHRLHRVLPAEEAVQGYKLKLEEDMEYLREQITRTGNLQAREEQSLAEWQGKVKERRERIVLEFEKMNLYLVEEEQRLLQALETEEEETASRLRESVACLDRQGHSLELLLLQLEERSTQGPLQMLQDMKEPLSRKNNVSVQCPEVAPPTRPRTVCRVPGQIEVLRGFLEDVVPDATSAYPYLLLYESRQRRYLGSSPEGSGFCSKDRFVAYPCAVGQTAFSSGRHYWEVGMNITGDALWALGVCRDNVSRKDRVPKCPENGFWVVQLSKGTKYLSTFSALTPVMLMEPPSHMGIFLDFEAGEVSFYSVSDGSHLHTYSQATFPGPLQPFFCLGAPKSGQMVISTVTMWVKG
partner: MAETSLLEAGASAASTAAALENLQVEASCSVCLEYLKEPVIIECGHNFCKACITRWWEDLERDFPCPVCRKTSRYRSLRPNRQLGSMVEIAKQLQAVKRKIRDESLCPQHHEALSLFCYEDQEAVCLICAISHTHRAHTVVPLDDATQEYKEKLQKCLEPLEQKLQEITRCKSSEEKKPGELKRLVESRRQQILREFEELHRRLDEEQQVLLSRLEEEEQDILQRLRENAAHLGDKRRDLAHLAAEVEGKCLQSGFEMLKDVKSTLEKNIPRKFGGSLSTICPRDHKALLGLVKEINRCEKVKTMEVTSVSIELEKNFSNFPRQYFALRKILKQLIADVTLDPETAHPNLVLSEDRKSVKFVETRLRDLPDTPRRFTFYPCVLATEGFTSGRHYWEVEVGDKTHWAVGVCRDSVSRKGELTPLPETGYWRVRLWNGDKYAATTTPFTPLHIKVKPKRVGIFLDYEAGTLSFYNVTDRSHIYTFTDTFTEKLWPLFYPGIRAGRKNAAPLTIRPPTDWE
B4: Cell growth regulator with RING finger domain protein 1 (Homo sapiens), Q99675 (parent)
chain: MAAVFLVTLYEYSPLFYIAVVFTCFIVTTGLVLGWFGWDVPVILRNSEETQFSTRVFKKQMRQVKNPFGLEITNPSSASITTGITLTTDCLEDSLLTCYWGCSVQKLYEALQKHVYCFRISTPQALEDALYSEYLYQEQYFIKKDSKEEIYCQLPRDTKIEDFGTVPRSRYPLVALLTLADEDDREIYDIISMVSVIHIPDRTYKLSCRILYQYLLLAQGQFHDLKQLFMSANNNFTPSNNSSSEEKNTDRSLLEKVGLSESEVEPSEENSKDCVVCQNGTVNWVLLPCRHTCLCDGCVKYFQQCPMCRQFVQESFALCSQKEQDKDKPKTL
partner: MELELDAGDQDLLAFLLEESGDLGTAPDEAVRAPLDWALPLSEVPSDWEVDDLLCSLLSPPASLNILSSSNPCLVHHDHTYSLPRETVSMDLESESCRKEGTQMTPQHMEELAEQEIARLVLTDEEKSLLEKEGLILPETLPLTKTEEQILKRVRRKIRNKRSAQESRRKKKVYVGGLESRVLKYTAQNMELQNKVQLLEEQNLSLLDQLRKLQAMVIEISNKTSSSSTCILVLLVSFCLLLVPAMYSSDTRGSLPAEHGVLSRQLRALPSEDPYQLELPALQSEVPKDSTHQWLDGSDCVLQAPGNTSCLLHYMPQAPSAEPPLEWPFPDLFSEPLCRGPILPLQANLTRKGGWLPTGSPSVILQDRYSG
B5: Ribonuclease inhibitor (Homo sapiens), P13489 (parent)
chain: MSLDIQSLDIQCEELSDARWAELLPLLQQCQVVRLDDCGLTEARCKDISSALRVNPALAELNLRSNELGDVGVHCVLQGLQTPSCKIQKLSLQNCCLTGAGCGVLSSTLRTLPTLQELHLSDNLLGDAGLQLLCEGLLDPQCRLEKLQLEYCSLSAASCEPLASVLRAKPDFKELTVSNNDINEAGVRVLCQGLKDSPCQLEALKLESCGVTSDNCRDLCGIVASKASLRELALGSNKLGDVGMAELCPGLLHPSSRLRTLWIWECGITAKGCGDLCRVLRAKESLKELSLAGNELGDEGARLLCETLLEPGCQLESLWVKSCSFTAACCSHFSSVLAQNRFLLELQISNNRLEDAGVRELCQGLGQPGSVLRVLWLADCDVSDSSCSSLAATLLANHSLRELDLSNNCLGDAGILQLVESVRQPGCLLEQLVLYDIYWSEEMEDRLQALEKDKPSLRVIS

Variants of: B1
Settings: with rnps1_human RNPS1, Q15287

Row | effect of a mutation on the interaction | Variant
1 | with no effect | E309G
2 | disrupting interaction strength | R605Q
3 | with no effect | S662A

Continued, variant first:

Row | Variant | effect of a mutation on the interaction
4 | S59G | with no effect
5 | T164M | with no effect

Variants of: B2
Settings: with tri27_human TRIM27, P14373

Row | effect of a mutation on the interaction | Variant
6 | with no effect | K104T
7 | with no effect | N225D

Variants of: B3
Settings: with tri39_human TRIM39, Q9HCM9

Row | effect of a mutation on the interaction | Variant
8 | disrupting interaction strength | T30A
9 | with no effect | E173K

Variants of: B4
Settings: with creb3_human CREB3, O43889

Row | effect of a mutation on the interaction | Variant
10 | disrupting interaction strength | R185W

Variants of: B5
Settings: with sdcb1_human SDCBP

Row | effect of a mutation on the interaction | Variant
11 | disrupting interaction strength | R110C
